{"source": "patent US20150344587A1", "key": {"CD20 [1]": {"target": "CD20 (UniProt P11836)", "assay": "binding to CD20 after 37° C. for 3 days; method not stated"}, "CD20 [2]": {"target": "CD20 (UniProt P11836)", "assay": "binding to CD20 after 37° C. for 7 days; method not stated"}}, "data": [{"substance": "(Fucα1,6)GlcNAc-Rituximab (antibody)", "values": [{"measurement": "loss of binding affinity", "setting": "CD20 [1]", "result": 10, "unit": "%"}, {"measurement": "loss of binding affinity", "setting": "CD20 [2]", "result": 20, "unit": "%"}]}]}
